Experimental data published in the nanobody polyreactivity screen of Harvey et al. (2022).

Test: yeast display, Sf9 membrane polyspecificity reagent, FACS + sequencing; frameworks hold sequencing errors
Procedure, shortened: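 Genes from sorted yeast were amplified by colony PCR, read by MiSeq 2 × 250 sequencing and filtered on CDR length. These cells carried a synthetic nanobody library in Saccharomyces cerevisiae BJ5465 and were sorted by FACS into low and high (top ~1%) gates on anti-HA and streptavidin fluorescence. Polyreactivity is labelled according to the gate of origin.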

Sequence | polyreactivity (PSR sort gate)
QVQLVESGGGLVQAGGSLRLSCAASGFTFLRYAMGWYRQAPGKESELVAAISTSGGSTSYADSVKGRFTISRDNAKNTVYLQMNSLKPEDTAVYYCNAVLYKVSISEYDYWGQGTQVTVSS | high polyreactivity
QVQLVESGGGLVQAGGSLRLSCAASGFTFLSYTMGWYRQEPGKERELVASITASGTRTYYADSVKGRFTISRDNAKNTVYLQMNSLKPDDTAVYYCAARRSGSGSHDYGYWGQGTQVTVSS | low polyreactivity
QVQLVESGGGLVQAGGSLRLSCAASGFTFNAMGWYRQAPGKERELVARIDSDDTTNYADSVKGRFTISRDNAKNTVYLQMNSLKPEDTAVYYCNKDYAWLSYQHYDYWGQGTQVTVSS | low polyreactivity
QVQLVESGGGLVQAGGSLRLSCAASGFTFNDYAMGWYRQAPGKERELVAAIDWSGGRTYYADSVKGRFTISRDNAKNTVYVQMNSLKPEDTAVYYCAAVLYSRLYWYRLDYWGQGTQVTVSS | low polyreactivity
QVQLVESGGGLVQAGGSLRLSCAASGFTFNEYAMGWYRQAPGKERELVAAITWGGASTYYADSVKGRFTISRDNAKNTVYLQMNSLKPEDTAVYYCVFVYVYDYYYWGQGTQVTVSS | high polyreactivity
QVQLVESGGGLVQAGGSLRLSCAASGFTFNFNAMGCYIQAPGKERELLAAIRYRGGSTNYADSVKGSFTISRDNAKNTVYVMMNSLKPEDTAVYYCNVYYYRTYSHVLPGYEYWGQGTQVPVSS | high polyreactivity
QVQLVESGGGLVQAGGSLRLSCAASGFTFNNYAMGWYRQAPGKERELVAAISSGAGTYYADSVKGRFTISRDNAKNTVYLQMNSLKPEDTAVYYCNASLKYQGRTRITYRDDYWGQGTQVTVSS | low polyreactivity
QVQLVESGGGLVQAGGSLRLSCAASGFTFNPYAMGWYRQAPGKERELVAAITSGGSTNYADSVKGRFTISRDNAKNTVYLQMNSLKPEDTAVYYCAADSRGYGDDSWGQGTKVTVSS | low polyreactivity
QVQLVESGGGLVQAGGSLRLSCAASGFTFNQYAMGWYRQAPGKERELVAAITGSGGSTYYADSVKGRFTISRDNAKNTVYLQMNSLKPEDTAVYYCNRDRFSRFYWGQGTQVTVSS | high polyreactivity
QVQLVESGGGLVQAGGSLRLSCAASGFTFNRYAMGWYRQAPGKERELVAAISARGGITYYADSVKGRFTISRDNAKNTVYLQMNSLKPEDTAVYYCNKRYSSWSGEHDYWGQGTQVTVSS | high polyreactivity
QVQLVESGGGLVQAGGSLRLSCAASGFTFNRYTMGWYRQAPGKERELVASISVRGSRTYYADSVKGRFTISRDNAKNTVYLQMNSLKPEDTAVYYCNAKTYVFYRLRSYYYWGQGTQVTVSS | high polyreactivity
QVQLVESGGGLVQAGGSLRLSCAASGFTFNVNAMGWYRQAPGKERELVATITWSDGSTRYADSVKGRFTISRDNAKNTVYLQMNSLKPEDTAVYYCAAESSECTSGDYDYWGQCTQVTVSS | low polyreactivity
QVQLVESGGGLVQAGGSLRLSCAASGFTFNYYAMGGYRPAPGKERELVAAISTGGSTYYADSVKGRFTFSRDNAKNTVYLQMISLKPEDTAVYYCNAKPRYRKADRLDYWGQGTQVTVSS | high polyreactivity
QVQLVESGGGLVQAGGSLRLSCAASGFTFPDYAMGWYRQAPGKEREMVAAISSDGSTYYADSVKGRFTISRDNAKNTVYLQMNSLKPEDTAVYYCAAYVVWLYGYDYWGQGTLVTVSS | low polyreactivity
QVQLVESGGGLVQAGGSLRLSCAASGFTFPENAMGWYRQAPGKERELVAAISYRGASTFYADSVKGRFTISRDNAKNTVYLQMNSLKPEDTAVYYCATDPRIRYQGNPYDYWGQGTKVTVSS | high polyreactivity
QVQLVESGGGLVQAGGSLRLSCAASGFTFPFYAMGWYRQAPGKERELVAPISRSGTRTYYADSVKGRFTISRDNAKNTVYLQMNSLKPEDTAVYYCAAAYHNGYLSEGYWEHYYWGQGTQVTVSS | high polyreactivity
QVQLVESGGGLVQAGGSLRLSCAASGFTFPGNTMGWYRQAPGKERELVAVISRSGGRSYYADSVKGRFTISRDNAKNTVYLQMNSLKPEDTAVYYCAADTSVRFDYWGQGTQVTVSS | high polyreactivity
QVQLVESGGGLVQAGGSLRLSCAASGFTFPHYAMGWYRQAPGKERELVARIRWGGGSTYYADSVKGRFTISRDNAKNTVYLQMNSLKPEDTAVYYCARTTSYLTSTRRYYYWGQGTQVTVSS | high polyreactivity
QVQLVESGGGLVQAGGSLRLSCAASGFTFPIYAMGLSRQAPGKERELVAAITTPGGRTYYADSVKGRFTISRDNAKNPVYLQLNSLKPEDTAVYYCNAQGYAYRLWFGYWGQGTQVTVSS | high polyreactivity
QVQLVESGGGLVQAGGSLRLSCAASGFTFPIYAMGWSRQAPGKEWELVAAISKGGARTYYADSVKGRFTISRDNAKNTVYLQMNSLNPEDTAVYYCAALGPGGWYDYWGQGTQVTVSS | high polyreactivity
QVQLVESGGGLVQAGGSLRLSCAASGFTFPLYAMGWYRQAPGKERELVASISSRGGSTYYADSVKGRFTISRDNAKNTVYLQMNSLKPEDTAVYYCARSTSRYYYWGQGTQVTVSS | high polyreactivity

Sequence | polyreactivity (PSR sort gate)
QVQLVESGGGLVQAGGSLRLSCAASGFTFPLYAMGWYRQAPGKETELVATISSSGSTYYADSVKGRFTISRDNAKNTVYLQMNSLKPEDTAVYYCIAAIQSYEGSGRYFRFDYWGQGTQVTVSS | low polyreactivity
QVQLVESGGGLVQAGGSLRLSCAASGFTFPRNTMGWYRQAPGKERELVAVISRSGGRSYYADSVKGRFTISRDNAKNTVYLQMNSLKPEDTAVYYCAADTSVRFDYWGQGTQVTVSS | high polyreactivity
QVQLVESGGGLVQAGGSLRLSCAASGFTFPRYAMGWYRQAPGKERELVAVITRRGGSTYYADSVKGRFTISRDNAKNTVYLQMNSLKPEDTAVYYCAARQYSYNGGYGYWGQGTQVTVSS | high polyreactivity
QVQLVESGGGLVQAGGSLRLSCAASGFTFPRYAMVWYRQAPGKERELVAAINRGGSTYYADSVKGRFTISRDNAKNTVYLQMNSLKPEDTAVYYCARARPVDTVGYVTVSGDYEFDYWGQGTQVTVSS | low polyreactivity
QVQLVESGGGLVQAGGSLRLSCAASGFTFPSNAMGWYRQAPGKERELVAAISSTDSTNYADSVKGRFTISRDNAKNTVYLQMNSLKPEDTAVFYCNADRDDDYDYWGQGTQVTVSS | low polyreactivity
QVQLVESGGGLVQAGGSLRLSCAASGFTFPSYAMGWYRQAPGKERELVAVISRRGGSTYYADSVKGRFTISRDNAKNTVYLQMNSLKPEDTAVYYCNAPYYVFITFDYWGQGTQVTVSS | high polyreactivity
QVQLVESGGGLVQAGGSLRLSCAASGFTFPSYPMGWYRQAPGKETELVAVISWGGTSTYYADSVKGRFTISRDNAKNTVYLQMNSLKPEDTAVYYCNRPSRYASTSRGYGYWGQGTQVTVSS | high polyreactivity
QVQLVESGGGLVQAGGSLRLSCAASGFTFPVNAMGWYRQAPGKERELVAAITKRGGGTYYADSVKGRFTISRDNAKNTVYLQMNSLKPEDTAVYYCAARSFWPYYGGDYDYWGQGTQVTVSS | high polyreactivity
QVQLVESGGGLVQAGGSLRLSCAASGFTFPVYTMGWYRQAPGKERELVAAISTSGAGTYYADSVKGRFTISRDNAKNTVYLQMNSLKPEDTAVYYCAAYKRGRPEMYYWGQGTQVTVSS | high polyreactivity
QVQLVESGGGLVQAGGSLRLSCAASGFTFPYYAKGWYRQAPGKERELVAASTYSGDSTDYADSVKGRFTISRDNAKNTVYLQMNSLKPEDTAVYYCNVTPDCAVTDDYWGQGTQVTVSS | low polyreactivity
QVQLVESGGGLVQAGGSLRLSCAASGFTFPYYAMGWYREAPGKERELVAAISFSGGRTYYADSVKGRFTISRDNAKNTVYLQMNSLKPEDTAVYYCAAAKTYYRYNYWGQGTQVSVSS | high polyreactivity
QVQLVESGGGLVQAGGSLRLSCAASGFTFPYYAMGWYRQAPGKERELVAAISRNGGSTYYADSVKGRFTISRDNAKNTVYLQMNSLKPEDTAVYYCAARYRYWGGSGFKGFDYWGQGTQVTVSS | high polyreactivity
QVQLVESGGGLVQAGGSLRLSCAASGFTFPYYAMGWYRQAPGKERELVAAITYSGDSTYYADSVKGRFTISRDNAKNTVYLQMNSLKPEDTAVYYCNVTPDWAVTDDYWGQGTQVTVSS | low polyreactivity
QVQLVESGGGLVQAGGSLRLSCAASGFTFQGNVMGWYRQAPGKERELVAVITSGGSTYYADSVKGRFTISRDNAKNTVYLQMNSLKPEDTAVYYCAKLYNSYTWKYGYWGQGTQVTVSS | high polyreactivity
QVQLVESGGGLVQAGGSLRLSCAASGFTFQGYVMGWYRQAPGKERELVARITNDGSTTYADSVKGRFTISRDNAKNTVYLQMNTLKPEDTAVYYCARPYRFWRYYGMYYWGQGTQVTVSS | high polyreactivity
QVQLVESGGGLVQAGGSLRLSCAASGFTFQPYAMGWYRQAPGKERELVAAINWSSGRTYYADSVKGRFTISRDNAKNTVYLEMNCLKPEDTAVYYCNTRSTLGYYWGQGTQVTVSS | high polyreactivity
QVQLVESGGGLVQAGGSLRLSCAASGFTFQTYAMGWYRQAPGKERELVATINSSGGGTYYADSVKGRFTISRDNAKNTVYLQMNSLKPEDTAVDYCAADAVWFVGQAFDISDSTTYGYWGQGTQVTVSS | low polyreactivity
QVQLVESGGGLVQAGGSLRLSCAASGFTFQVYAMGWYRQAPGKERELVADITESGDSTYYADSVKGRFTISRDNAKNTVYLQMNSLKPEDTAVYYCAADGGWFWSLFYTFAFDYWGQGTQVTVSS | low polyreactivity
QVQLVESGGGLVQAGGSLRLSCAASGFTFQYNAMGWYRQAPGKERELVAAITWTGTSTYAYSVKGRFTISRDNAKNTVYLQLNSVKPDDTGVYYCAARYYAPRWFRYDYWGQGTQVTVSS | low polyreactivity
QVQLVESGGGLVQAGGSLRLSCAASGFTFQYYAMGWYRQAPGKERELVAAISRGGSTNYADSVKGRFTISRDNAKNTVYLQMNSLKPEDTAVYYCARLGWTYLWGYDSWGQGTQVTVSS | high polyreactivity
